# The supplement of paper PMC7877785
# ± gives the uncertainty stated by the source.
# Assay: self-splicing fitness, log relative to wild type (ln ratio); higher = more splicing; Tetrahymena group I intron in knt gene, E. coli kanamycin selection, DiMSum; sequences stand for … in CUCUCU…GGAGGGAAAAGUUAUCAGGCAUGCACCUGGUAGCUAGUCUUUAAACCAAUAGAUUGCAUCGGUUUAAAAGGCAAGACCGUCAAAUUGCGGGAAAGGGGUCAACAGCCGUUCAGUACCAAGUCUCAGGGGAAACUUUGAGAUGGCCUUGCAAAGGGUAUGGUAAUAAGCUGACGGACAUGGUCCUAACCACGCAGCCAAGUCCUAAGUCAACAGAUCUUCUGUUGAUAUGGAUGCAGUUCACAGACUAAAUGUCGGUCGGGGAAGAUGUAUUCUUCUCAUAAGAUAUAGUCGGACCUCUCCUUAAUGGGAGCUAGCGGAUGAAGUGAUGCAACACUGGAGCCGCUGGGAACUAAUUUGUAUGCGAAAGUAUAUUGAUUAGUUUUGGAGUACUCGUGGUCG
# Summary of the method: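 Library with all eight P1ex-region intron nucleotides randomised, intron inside the knt kanamycin-resistance gene on pET-22b(+), in E. coli BL21(DE3). Cells grew overnight at 37°C or 30°C on LB agar with or without 25 μg/mL kanamycin (plus 100 μg/mL carbenicillin, 50 μM IPTG, 0.2% rhamnose), in six replicate transformations. Pooled colonies were amplicon-sequenced on Illumina HiSeq 2500. DiMSum fitness is the error-weighted combination of wild-type-normalised replicate fold changes, kanamycin versus none.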
Sequence,self-splicing fitness (ln) (30 °C),self-splicing fitness (ln) (37 °C)
CCAAAGCAAUAUUACGGGUU,-2.96 ± 0.15,-2.5 ± 0.16
CCAAAGCAAUAUUACGGUAU,-3.41 ± 0.18,-2.08 ± 0.25
CCAAAGCAAUAUUACGGUCG,-0.306 ± 0.066,-0.674 ± 0.077
CCAAAGCAAUAUUACGGUGA,-3.77 ± 0.25,-4.04 ± 0.34
CCAAAGCAAUAUUACGGUGC,-4.01 ± 0.16,-2.19 ± 0.13
CCAAAGCAAUAUUACGUAAC,-4.73 ± 0.27,-2.72 ± 0.28
CCAAAGCAAUAUUACGUCCG,-0.225 ± 0.11,-0.354 ± 0.14
CCAAAGCAAUAUUACGUCUC,-3.08 ± 0.13,-2.89 ± 0.092
CCAAAGCAAUAUUACGUGUA,-3.72 ± 0.14,-1.97 ± 0.12
CCAAAGCAAUAUUACGUGUU,-3.49 ± 0.11,-1.56 ± 0.09
CCAAAGCAAUAUUACGUUAA,-3.93 ± 0.26,-1.97 ± 0.22
CCAAAGCAAUAUUACGUUAG,-1.89 ± 0.071,-0.652 ± 0.073
CCAAAGCAAUAUUACGUUCG,-0.496 ± 0.055,0.165 ± 0.069
CCAAAGCAAUAUUACGUUUG,-2.93 ± 0.089,-1.43 ± 0.086
CCACAGCAAUAUUACGAAGA,-1.5 ± 0.15,-2.55 ± 0.24
CCACAGCAAUAUUACGAAGC,-3.85 ± 0.2,-2.3 ± 0.15
CCACAGCAAUAUUACGAAGG,-3.62 ± 0.13,-2.92 ± 0.16
CCACAGCAAUAUUACGACAG,-1.06 ± 0.083,-0.0398 ± 0.088
CCACAGCAAUAUUACGACUC,-2.46 ± 0.18,-2.76 ± 0.3
CCACAGCAAUAUUACGAGCU,-3.67 ± 0.15,-2.4 ± 0.15
CCACAGCAAUAUUACGAGUU,-2.76 ± 0.09,-2.76 ± 0.12
CCACAGCAAUAUUACGCACA,-2.44 ± 0.15,-2.33 ± 0.25
CCACAGCAAUAUUACGCACG,-0.551 ± 0.063,-0.626 ± 0.093
CCACAGCAAUAUUACGCCUA,-2.47 ± 0.28,-2.79 ± 0.34
CCACAGCAAUAUUACGCUCA,-2.89 ± 0.21,-2.41 ± 0.27

Sequence,self-splicing fitness (ln) (30 °C),self-splicing fitness (ln) (37 °C)
CCACAGCAAUAUUACGCUCU,-4.07 ± 0.17,-2.1 ± 0.16
CCACAGCAAUAUUACGCUUG,-2.66 ± 0.075,-1.96 ± 0.083
CCACAGCAAUAUUACGGAUC,-4.54 ± 0.34,-2.8 ± 0.27
CCACAGCAAUAUUACGGCAA,-2.92 ± 0.29,-2.74 ± 0.32
CCACAGCAAUAUUACGGCAU,-3.72 ± 0.16,-2.54 ± 0.18
CCACAGCAAUAUUACGGCCC,-2.78 ± 0.29,–
CCACAGCAAUAUUACGGCUG,-3.26 ± 0.15,-2.48 ± 0.15
CCACAGCAAUAUUACGGUCG,-0.147 ± 0.066,0.437 ± 0.086
CCACAGCAAUAUUACGGUCU,-3.44 ± 0.11,-1.87 ± 0.12
CCACAGCAAUAUUACGUAAA,-3.84 ± 0.17,-2.06 ± 0.18
CCACAGCAAUAUUACGUAGA,-2.28 ± 0.085,-1.5 ± 0.12
CCACAGCAAUAUUACGUCAU,-3.67 ± 0.16,-2.81 ± 0.16
CCACAGCAAUAUUACGUGUU,-3.75 ± 0.1,-3.15 ± 0.14
CCAGAGCAAUAUUACGAACC,-2.33 ± 0.28,-1.77 ± 0.38
CCAGAGCAAUAUUACGAAGA,-3.48 ± 0.31,-2.84 ± 0.43
CCAGAGCAAUAUUACGAAUC,-3.76 ± 0.26,-2.74 ± 0.27
CCAGAGCAAUAUUACGACCU,-2.54 ± 0.23,-3.29 ± 0.39
CCAGAGCAAUAUUACGCAAU,-2.14 ± 0.2,-2.05 ± 0.31
CCAGAGCAAUAUUACGCCAA,–,-3.04 ± 0.47
CCAGAGCAAUAUUACGCCAG,-3.07 ± 0.25,–
CCAGAGCAAUAUUACGCCUC,-3.12 ± 0.31,0.134 ± 0.26
CCAGAGCAAUAUUACGGGAA,–,0.0973 ± 0.28
CCAGAGCAAUAUUACGGGCC,-2.83 ± 0.22,-2.55 ± 0.26
CCAGAGCAAUAUUACGGGUA,-2.35 ± 0.29,-2.3 ± 0.3
